Measured values reported in patent CN110294802A.

Target: HAdV7灭活病毒 (human/CHN/GZ6965/2001)

B1: 10G12抗体 (antibody, V domains shown)
VH: QVQLKQPGAELVRPGASVKLSCKASGYSFTNYWMHWMKQRPGQGLEWIGMIDPSDSETRLNQKFKDKATLTVDKSSSIAYMQLSSPTSEDSAVYYCARDRYDGGAWFDYWSQGTLVT
VL: DIVMTQTPLSLPVSLGDQASISCRSSQSLVHSNGNTYLHWYLQKPGQSPKLLIYKVSNRFSGVPDRFSVSGSGTDFTLKISRVEAEDLGVYFCSQSTHVPPTFGGGTKLEIK
How did the EC50 turn out when B1 was run?
The EC50 was 0.14 nM.
